Measured values as given in doi:10.1101/2024.04.24.590854 (bioRxiv, 2024).

Molecular target: reconstituted XPO1:RanGTP nuclear export receptor complex (human | yeast (ScRan), UniProt O14980 1-1071; P32835 1-179, Q71L)
Experiment: fluorescence polarisation

B1: ETV6 P214L(203-222) peptide (peptide)
peptide: {5(6)‑carboxyfluorescein}-SPLDNMIRRLSLAERAQGPR-NH2
B1 gave a Kd of 261 nM.

B2: POU4F3 P125L(114-134) peptide (peptide)
peptide: {5(6)‑carboxyfluorescein}-GLEGDLLEHISLTLSVSGLGA-NH2
B2: binds.
